Results on 39 molecules are retold here after patent US20220259593A1, “CONTROL OF MAMMALIAN GENE DOSAGE USING CRISPR” (The Regents of the University of California, priority 2019, published 2022).

Changes are numbered by the printed parent chain.

The series has as its system K562 CRISPRi cells. The experiment in a line: Constant region variant library pooled growth screen, K562. The class given is cell-based, human. The note with it: sgRNA constant region variants. Summed up:
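Growth screens in K562 CRISPRi cells were harvested 4-8 days post-selection at >2000× library coverage. Each variant's phenotype was referenced to the unmodified constant region with the same targeting sequence.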

Setting [1] is: activity relative to the original, un-modified constant region cr995.
Setting [2] is: relative to the original, un-modified constant region cr995 (= 1).

B1: cr383 (nucleic acid)
guide: GTTTAAGAGCTAAGCTGGAAACAGCATAGCAACTTTAAATAAGGCTAGTCCGTTATCAACTTGAAAAAGTGGCACCTAGTAGGTGCT
modifications: listed as DNA, chemistry not fully specified
For the molecule B1, the Mean relative activity under setting [1] is listed as −0.005505.

B2: cr610 (nucleic acid)
guide: B1 guide with C33G, C60G, T61A, A68T, G69C, G72A, T77G, A81C, C86T
modifications: listed as DNA, chemistry not fully specified
In turn, B2 yielded a Mean relative activity under setting [2] of 1.027.

B3: cr140 (nucleic acid)
guide: B1 guide with C33G, C60T, T61C, A68G, G69A, T77G, A81C
modifications: listed as DNA, chemistry not fully specified
Under setting [2], B3 displayed a Mean relative activity of 1.023.

B4: cr444 (nucleic acid)
guide: B1 guide with C33G, A65C, T77G, A81C
modifications: listed as DNA, chemistry not fully specified
On to B4, for which the Mean relative activity under setting [2] was determined as 1.023.

B5: cr882 (nucleic acid)
guide: B1 guide with C33G, G63C, T77G, A81C
modifications: listed as DNA, chemistry not fully specified
With B5, the Mean relative activity under setting [1] amounted to 1.027.

B6: cr896 (nucleic acid)
guide: B1 guide with C33G, C73A, A74C, T77G, A81C, T84G, G85T
modifications: listed as DNA, chemistry not fully specified
On to B6, for which the Mean relative activity under setting [2] is reported as 1.025.

B7: cr056 (nucleic acid)
guide: B1 guide with T3G, A5C, C33G, T77G, A81C
modifications: listed as DNA, chemistry not fully specified
B7: under setting [1], the Mean relative activity is recorded as −0.009512.

B8: cr118 (nucleic acid)
guide: B1 guide with A23G, C33G, T77G, A81C
modifications: listed as DNA, chemistry not fully specified
For the molecule B8, the Mean relative activity under setting [2] was 1.025.

B9: cr784 (nucleic acid)
guide: B1 guide with C33G, G43T, G44C, C50T, T77G, A81C
modifications: listed as DNA, chemistry not fully specified
As for B9, the Mean relative activity under setting [1] is on record as −0.01213.

B10: cr345 (nucleic acid)
guide: B1 guide with A21C, C33G, T77G, A81C
modifications: listed as DNA, chemistry not fully specified
Take B10: the Mean relative activity under setting [2] was determined as 1.021.

B11: cr948 (nucleic acid)
guide: B1 guide with C33G, A67G, T77G, A81C
modifications: listed as DNA, chemistry not fully specified
With B11, under setting [2], the Mean relative activity is recorded as 1.02.

B12: cr561 (nucleic acid)
guide: B1 guide with C33G, A47T, T77G, A81C
modifications: listed as DNA, chemistry not fully specified
As for B12, the Mean relative activity under setting [2] stood at 1.021.

B13: cr934 (nucleic acid)
guide: B1 guide with C33G, A47T, T56C, T77G, G79T, A81C
modifications: listed as DNA, chemistry not fully specified
Under setting [2], B13 yielded a Mean relative activity of 1.024.

B14: cr551 (nucleic acid)
guide: B1 guide with A26T, C33G, T77G, A81C
modifications: listed as DNA, chemistry not fully specified
Take B14: the Mean relative activity under setting [1] was −0.109.

B15: cr858 (nucleic acid)
guide: B1 guide with A20G, C33G, T77G, A81C
modifications: listed as DNA, chemistry not fully specified
Turning to B15, the Mean relative activity under setting [2] is reported as 1.025.

B16: cr801 (nucleic acid)
guide: B1 guide with C33G, A59G, T70C, C73A, C75G, T77G, A81C, G83C, G85T
modifications: listed as DNA, chemistry not fully specified
B16 returned a Mean relative activity under setting [2] of 1.02.

B17: cr884 (nucleic acid)
guide: B1 guide with C33G, A59C, T62A, A67T, T70G, G72T, T77G, A81C, C86A
modifications: listed as DNA, chemistry not fully specified
In turn, B17 returned a Mean relative activity under setting [2] of 1.027.

B18: cr925 (nucleic acid)
guide: B1 guide with C33G, A59T, T61G, T62A, A67T, A68C, T70A, T77G, A81C
modifications: listed as DNA, chemistry not fully specified
The molecule B18 registered a Mean relative activity under setting [1] of 1.084.

B19: cr888 (nucleic acid)
guide: B1 guide with C33G, G63T, A65C, T77G, A81C
modifications: listed as DNA, chemistry not fully specified
For the molecule B19, under setting [2], the Mean relative activity came to 1.02.

B20: cr797 (nucleic acid)
guide: B1 guide with C33G, T54G, T77G, A81C
modifications: listed as DNA, chemistry not fully specified
For the molecule B20, the Mean relative activity under setting [1] amounted to 1.027.

B21: cr515 (nucleic acid)
guide: B1 guide with G18T, C33G, T77G, A81C
modifications: listed as DNA, chemistry not fully specified
As for B21, the Mean relative activity under setting [1] is given as 1.027.

B22: cr565 (nucleic acid)
guide: B1 guide with C33G, T61G, T62C, A67G, A68C, T77G, A81C
modifications: listed as DNA, chemistry not fully specified
Under setting [1], B22 showed a Mean relative activity of 1.085.

B23: cr661 (nucleic acid)
guide: B1 guide with G29A, C33G, G52C, A66T, T77G, A81C
modifications: listed as DNA, chemistry not fully specified
Regarding B23, under setting [1], the Mean relative activity was −0.01151.

B24: cr942 (nucleic acid)
guide: B1 guide with C33G, T56C, A66C, T77G, A81C
modifications: listed as DNA, chemistry not fully specified
The molecule B24 gave a Mean relative activity under setting [1] of 1.087.

B25: cr329 (nucleic acid)
guide: B1 guide with G43A, C51T, T77G, A81C
modifications: listed as DNA, chemistry not fully specified
Regarding B25, the Mean relative activity under setting [1] is −0.007607.

B26: cr540 (nucleic acid)
guide: B1 guide with G43T, C51A, T77G, A81C
modifications: listed as DNA, chemistry not fully specified
Turning to B26, the Mean relative activity under setting [1] is reported as −0.0122.

B27: cr412 (nucleic acid)
guide: B1 guide with C33G, C60G, G69C, T77G, A81C
modifications: listed as DNA, chemistry not fully specified
Under setting [2], B27 registered a Mean relative activity of 1.025.

B28: cr434 (nucleic acid)
guide: B1 guide with C33G, G63C, A65T, T77G, A81C
modifications: listed as DNA, chemistry not fully specified
Consider B28, for which the Mean relative activity under setting [1] came to 1.027.

B29: cr583 (nucleic acid)
guide: B1 guide with C33G, A41C, G52A, A58T, T77G, A81C
modifications: listed as DNA, chemistry not fully specified
Take B29: under setting [1], the Mean relative activity is reported as −0.01013.

B30: cr600 (nucleic acid)
guide: B1 guide with C33G, C60G, A65G, G69C, T77G, A81C
modifications: listed as DNA, chemistry not fully specified
In the case of B30, the Mean relative activity under setting [2] is given as 1.021.

B31: cr790 (nucleic acid)
guide: B1 guide with T77A, A81T
modifications: listed as DNA, chemistry not fully specified
As to B31, under setting [1], the Mean relative activity is on record as −0.01697.

B32: cr710 (nucleic acid)
guide: B1 guide with C33G, C75G, T77G, A81C, G83C
modifications: listed as DNA, chemistry not fully specified
Turning to B32, under setting [2], the Mean relative activity is given as 1.021.

B33: cr135 (nucleic acid)
guide: B1 guide with C33G, G43C, C51G, C60A, G69T, A74G, T77G, A81C, T84C
modifications: listed as DNA, chemistry not fully specified
Consider B33, for which the Mean relative activity under setting [1] is given as −0.00878.

B34: cr034 (nucleic acid)
guide: B1 guide with T2C, T3A, C33G, T77G, A81C
modifications: listed as DNA, chemistry not fully specified
With B34, the Mean relative activity under setting [1] was −0.007191.

B35: cr929 (nucleic acid)
guide: B1 guide with C33G, G72T, T77G, A81C
modifications: listed as DNA, chemistry not fully specified
In turn, B35 returned a Mean relative activity under setting [2] of 1.025.

B36: cr334 (nucleic acid)
guide: B1 guide with C33G, C60G, T62G, A67C, G69C, T77A, A81T
modifications: listed as DNA, chemistry not fully specified
Take B36: the Mean relative activity under setting [2] amounted to 1.025.

B37: cr978 (nucleic acid)
guide: B1 guide with C33G, C73A, C75A, T77G, A81C, G83T, G85T
modifications: listed as DNA, chemistry not fully specified
B37 displayed a Mean relative activity under setting [2] of 1.021.

B38: cr036 (nucleic acid)
guide: B1 guide with T2C, T4A, C33G, T77G, A81C
modifications: listed as DNA, chemistry not fully specified
For B38, under setting [1], the Mean relative activity was −0.005679.

B39: cr990 (nucleic acid)
guide: B1 guide with G29T, C33G, T34C, C57G, T77G, A81C
modifications: listed as DNA, chemistry not fully specified
As for B39, the Mean relative activity under setting [1] is recorded as −0.0163.
